Experimental data taken from patent US20240092925A1 (NANJING IASO BIOTECHNOLOGY, published 2024).

T1: Recombinant biotinylated Human CD19 Protein-Fc (Kactus, CD2-HE121) (human, UniProt P15391 20-291, biotinylated (site not stated))
T1 construct: bought; also called CD19-Fc-Bio; Kactus-CD19-FC-Bio; not shown: Fc tag
T1 sequence (looked up): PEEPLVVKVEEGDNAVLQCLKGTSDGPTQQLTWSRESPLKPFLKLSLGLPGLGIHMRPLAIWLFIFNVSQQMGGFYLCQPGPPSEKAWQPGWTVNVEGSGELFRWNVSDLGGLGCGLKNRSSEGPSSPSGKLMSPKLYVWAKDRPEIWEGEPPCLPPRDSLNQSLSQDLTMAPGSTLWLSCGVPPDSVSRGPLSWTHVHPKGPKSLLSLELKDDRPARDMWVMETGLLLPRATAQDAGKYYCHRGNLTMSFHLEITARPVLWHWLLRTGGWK

B1: phage monoclonal clone #62 (single-domain antibody) (VHH)
VHH: QVQLVQSGAEVKKPGESLRISCKASGYSFSNHWIGWVRQKPGKGLEWMGSVYPGDSDTRYSPSFQGHVTVSADKSMNTAYLQWSSLKTSDTAMYYCARGGTIDGDYGGRQDFWGQGTMVTVSS
B2: phage monoclonal clone #42 (single-domain antibody) (VHH)
VHH: EVQLLESGGGLVQPGGSLRLSCAASGFTFSHSAMGWVRQAPGKGLEWVSSIYARGGYTYYADSVKGRFTISRDNSKNTLYLQMNSLRAEDTAVYYCARGYHLEYMVSQDVWGQGTLVTVSS
B3: phage monoclonal clone #61 (single-domain antibody) (VHH)
VHH: QVQLVQSGAEVKKPGSSVKVSCKASGGTFSNYAISWVRQAPGQGLEWMGWISAYNGDTKYAQRLQGRVTMTTDTSTSTAYMELRNLRSDDTAVYYCARYESMSGQDIWGQGTLVTVSS
B4: phage monoclonal clone #60 (single-domain antibody) (VHH)
VHH: QVQLVESGGGLVQPGGSLRLSCAASGFTFSSYEMNWVRQAPGKGLEWVSYISSSGSTIYYADSVKGRFTISRDNAKNSLYLQMNSLRAEDTAVYYCARVAQREGDVWGKGTTVTVSS

Biological target: T1, Recombinant biotinylated Human CD19 …
Assay: phage ELISA

Binder	binding result
B1	no binding
B2	no binding
B3	no binding
B4	no binding

Biological target: T2, Biotinylated Recombinant human BAFFR Protein (Kactus, BAF-HM40RB) (human, UniProt Q96RJ3 7-71, limits assumed, biotinylated (site not stated))
T2 construct: bought; also called Kactus-BAFFR-his-Bio; not shown: his tag
Assay: phage ELISA

T2 sequence (Q96RJ3 7-71 limits assumed): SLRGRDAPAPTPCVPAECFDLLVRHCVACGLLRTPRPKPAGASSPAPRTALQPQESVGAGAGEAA

Binder	binding result
B1	no binding
B2	no binding
B3	no binding
B4	no binding

Biological target: T3, Streptavidin (Pierce, 21125) (UniProt P22629 37-163, limits assumed)
T3 construct: coated on the ELISA plate; non-related antigen; also called SA
Assay: phage ELISA

T3 sequence (P22629 37-163 limits assumed): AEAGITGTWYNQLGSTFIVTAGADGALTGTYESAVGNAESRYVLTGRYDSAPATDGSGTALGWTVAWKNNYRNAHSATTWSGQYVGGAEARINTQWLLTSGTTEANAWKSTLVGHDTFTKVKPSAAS

Binder	binding result
B1	no binding
B2	no binding
B3	no binding
B4	no binding
